From patent publication US20240207421A1, “NERVE TARGETING PEPTIDES AND METHODS OF USE” (ALUME BIOSCIENCES, INC., priority 2020, published 2024)
Blank lines part the entries; values can stand above or below the molecule they belong to.

What was measured:
Human Nidogen-2 (human) [1] = target: Human Nidogen-2 (human) (UniProt Q14112); experiment: phage display, NGS count
Human Nidogen-2 (human) [2] = target: Human Nidogen-2 (human) (UniProt Q14112); experiment: phage display R3, NGS count
Human Nidogen-2 = target: T1, Human Nidogen-2 (Homo sapiens, UniProt Q14112); experiment: Phage display library screening (Example 1, Power BI analysis), binding to Human Nidogen-2; settings: R3 Nidogen-2, NextGen sequencing count of phage sequences distinct for this target
T1 construct: purchased Novus NBP2-10365
T1 sequence (Q14112 31-1375): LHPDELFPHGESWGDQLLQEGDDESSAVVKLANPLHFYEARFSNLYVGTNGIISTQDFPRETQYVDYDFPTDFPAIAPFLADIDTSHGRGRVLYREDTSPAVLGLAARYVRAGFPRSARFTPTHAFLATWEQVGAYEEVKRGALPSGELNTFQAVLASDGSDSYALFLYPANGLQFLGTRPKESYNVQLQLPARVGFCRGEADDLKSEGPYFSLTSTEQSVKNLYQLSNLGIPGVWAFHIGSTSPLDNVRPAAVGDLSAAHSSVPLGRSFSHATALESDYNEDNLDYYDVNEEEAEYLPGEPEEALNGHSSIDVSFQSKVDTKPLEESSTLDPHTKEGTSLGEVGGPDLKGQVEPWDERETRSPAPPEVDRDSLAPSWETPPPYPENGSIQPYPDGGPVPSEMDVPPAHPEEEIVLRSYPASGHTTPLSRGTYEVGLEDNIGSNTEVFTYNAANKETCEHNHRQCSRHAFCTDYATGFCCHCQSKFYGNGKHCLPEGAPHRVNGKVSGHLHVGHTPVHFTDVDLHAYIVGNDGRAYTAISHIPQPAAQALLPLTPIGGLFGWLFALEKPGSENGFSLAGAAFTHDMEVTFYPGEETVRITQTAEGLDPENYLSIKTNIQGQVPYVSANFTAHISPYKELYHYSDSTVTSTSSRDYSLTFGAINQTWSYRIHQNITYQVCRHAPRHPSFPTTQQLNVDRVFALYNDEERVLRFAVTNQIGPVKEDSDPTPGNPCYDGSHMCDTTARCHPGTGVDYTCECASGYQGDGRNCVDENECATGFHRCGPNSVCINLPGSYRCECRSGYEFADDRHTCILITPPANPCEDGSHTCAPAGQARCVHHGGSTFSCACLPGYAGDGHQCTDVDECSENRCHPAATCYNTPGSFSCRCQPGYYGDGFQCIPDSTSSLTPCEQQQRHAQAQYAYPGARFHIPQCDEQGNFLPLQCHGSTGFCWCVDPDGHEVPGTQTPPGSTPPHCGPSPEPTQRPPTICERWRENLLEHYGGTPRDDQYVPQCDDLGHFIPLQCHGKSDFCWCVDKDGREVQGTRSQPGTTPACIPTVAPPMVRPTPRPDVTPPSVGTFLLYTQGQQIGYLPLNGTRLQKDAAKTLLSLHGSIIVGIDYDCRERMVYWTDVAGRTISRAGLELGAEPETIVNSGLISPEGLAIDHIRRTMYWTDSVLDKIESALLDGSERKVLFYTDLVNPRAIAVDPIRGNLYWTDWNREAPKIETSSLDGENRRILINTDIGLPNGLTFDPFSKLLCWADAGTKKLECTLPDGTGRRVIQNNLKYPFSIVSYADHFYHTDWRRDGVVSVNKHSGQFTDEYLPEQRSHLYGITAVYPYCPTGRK
Text: (§1) Phage display library screens were used to identify peptides that bind to target proteins that are expressed in human nerves and could therefore be useful for systemic in-vivo labeling of nerves during fluorescence assisted surgery. Specifically, m13 phage libraries expressing 7 or 12 random amino acid peptides, or a cyclic peptide CX7C, on the N-terminus of the minor coat protein pIII (New England Biolabs) were processed through multiple rounds of selection for binding to target proteins expressed in peripheral nerve (Table 1).
(§2) The library was processed through up to 4 binding and wash cycles. For selection, phage libraries were incubated for up to 24 hours at 4° C. in 96 well plates that had been coated with one of the target proteins. Plates were then washed with PBS and phage were eluted using 0.2M glycine pH 2.0. Phage supernatants where then neutralized with Tris pH 9.0 prior to plating on TG1 bacteria and LB agar plates. Colonies were counted to determine titer followed by DNA preparation of pools of phage and NextGen sequencing. After rounds of selection, phage were pooled and amplified for iterative selection. Phage that were bound at each round were sequenced. NextGen sequencing of pools after 2, 3 and 4 rounds of selection was used to isolate candidate sequences that were analyzed further to identify those that specifically bound each unique target protein.
(§3) DNA sequences were trimmed of all vector amino acids and imported as a peptide dataset into Power BI. Power BI was used to identify phage display sequences for specific columns (corresponding to each target protein) in order to identify sequences that were distinct for each protein target. The Power BI code evaluated each individual sequence for each protein target against the sequences present in other protein targets in a test for uniqueness. Using the distinct flag, the Power BI code generated a filtered peptide dataset that excluded any peptide sequence that occur in more than one column which identified a specific protein target. This method therefore identified candidate peptide sequences showing selective binding to an individual target protein. Unique sequences in each column were sorted by individual counts such that the most selected sequences appeared at the top of the column.

Human MPZ (human) [3] = target: Human MPZ (human) (UniProt P25189); experiment: phage display R3, NGS count
Human MPZ (human) [4] = target: Human MPZ (human) (UniProt P25189); experiment: phage display, NGS count
[5] = target: T2, Human Myelin Basic Protein (Homo sapiens, UniProt P02686); experiment: phage display R3, NGS count
[6] = target: T2, Human Myelin Basic Protein; experiment: phage display, NGS count
Human Myelin PLP [7] = experiment: Phage display library screening (Example 1, Power BI analysis), binding to Human Myelin PLP; settings: R3 Myelin PLP, NextGen sequencing count of phage sequences distinct for this target
Text: as §1, §2, §3

Human Myelin PLP [8] = experiment: Phage display library screening (Example 2, Python script analysis), binding to Human Myelin PLP; settings: combined unique sequence count, Python/R script analysis
How it was run: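 Target protein-coated wells were panned with M13 phage libraries displaying 7- or 12-mer random or cyclic CX7C peptides on pIII, over up to 4 rounds (up to 24 h, 4° C), with glycine pH 2.0 elution. Pools from rounds 2–4 were NextGen-sequenced. Peptides specific to each target were ranked by unique sequence count.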

[9] = target: T2, Human Myelin Basic Protein; experiment: phage display R3, NGS count; remark: listed apart in the source
[10] = target: T2, Human Myelin Basic Protein; experiment: phage display, NGS count; remark: listed apart in the source

Sequence of Human MPZ (human) (P25189 30-153 limits assumed): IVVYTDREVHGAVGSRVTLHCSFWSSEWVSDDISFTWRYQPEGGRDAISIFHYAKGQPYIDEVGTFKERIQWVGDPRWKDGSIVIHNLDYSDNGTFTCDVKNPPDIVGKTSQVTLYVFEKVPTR
T2 sequence (P02686 135-304 limits assumed): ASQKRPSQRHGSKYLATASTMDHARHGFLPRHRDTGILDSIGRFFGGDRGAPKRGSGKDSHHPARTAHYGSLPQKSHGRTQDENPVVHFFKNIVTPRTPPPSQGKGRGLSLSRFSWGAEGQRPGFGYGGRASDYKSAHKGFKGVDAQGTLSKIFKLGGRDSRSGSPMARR

Molecule: WLAAGSQ (peptide)
- Count (Human Nidogen-2 (human) [1]): 6

Molecule: LHITPEV (peptide)
- Count (Human Nidogen-2 (human) [1]): 6

Molecule: ACEPRSLANC (R3 Nidogen-2-binding peptide)
- Count (Human Nidogen-2): 11

Molecule: QLLESRT (peptide)
- Count (Human Nidogen-2 (human) [1]): 6

Molecule: QIGVLPS (peptide)
- Count [5]: 11

Molecule: TESLFPH (peptide)
- Count (Human MPZ (human) [3]): 50
- Count (Human MPZ (human) [4]): 52

Molecule: VLTKPMP (peptide)
- Count (Human MPZ (human) [3]): 56
- Count (Human MPZ (human) [4]): 56

Molecule: EAMMHRN (peptide)
- Count (Human Nidogen-2 (human) [1]): 6

Molecule: GPLRMAT (peptide)
- Count (Human MPZ (human) [3]): 50
- Count (Human MPZ (human) [4]): 51

Molecule: KAIHPMRG (R3 Nidogen-2-binding peptide)
- Count (Human Nidogen-2): 11

Molecule: DPWVMLR (peptide)
- Count [5]: 11
- Count [6]: 11

Molecule: SAHAKHH (peptide)
- Count (Human MPZ (human) [3]): 51
- Count (Human MPZ (human) [4]): 52

Molecule: SHSPGNK (peptide)
- Count (Human MPZ (human) [3]): 67
- Count (Human MPZ (human) [4]): 79

Molecule: SPDRTSL (peptide)
- Count [5]: 12
- Count [6]: 12

Molecule: TMASPAK (peptide)
- Count (Human MPZ (human) [3]): 52
- Count (Human MPZ (human) [4]): 58

Molecule: WTMKPNY (peptide)
- Count [5]: 13
- Count [6]: 14

Molecule: DGKNTSN (peptide)
- Count [5]: 10

Molecule: NILSQVN (peptide)
- Count (Human Nidogen-2 (human) [1]): 6

Molecule: HPSTWHK (peptide)
- Count [5]: 18

Molecule: HRLPWHH (peptide)
- Count [5]: 10
- Count [6]: 10

Molecule: ACGEGEADVC (R3 Nidogen-2-binding peptide)
- Count (Human Nidogen-2): 26

Molecule: AWSTSSV (peptide)
- Count [5]: 12
- Count [6]: 12

Molecule: GLRTMEP (peptide)
- Count (Human Nidogen-2 (human) [1]): 7

Molecule: GYWRNAL (peptide)
- Count (Human Nidogen-2 (human) [2]): 11

Molecule: ACPENKSKHC (R3 Nidogen-2-binding peptide)
- Count (Human Nidogen-2): 13

Molecule: ETTRNYG (peptide)
- Count (Human MPZ (human) [3]): 68
- Count (Human MPZ (human) [4]): 69

Molecule: QTLRPKQ (peptide)
- Count (Human Nidogen-2 (human) [1]): 6

Molecule: ALYLPGR (peptide)
- Count (Human Nidogen-2 (human) [1]): 7

Molecule: TPWLPTI (peptide)
- Count (Human Nidogen-2 (human) [1]): 7

Molecule: GYWRNAL (R3 Nidogen-2-binding peptide)
- Count (Human Nidogen-2): 11

Molecule: DPITRLK (peptide)
- Count (Human MPZ (human) [3]): 92
- Count (Human MPZ (human) [4]): 93

Molecule: QNTGLKW (peptide)
- Count [5]: 11
- Count [6]: 11

Molecule: ACTVHKWDNC (R3 Nidogen-2-binding peptide)
- Count (Human Nidogen-2): 11

Molecule: MQTQGRV (peptide)
- Count [5]: 12

Molecule: LRFQIPP (R3 Myelin PLP-binding peptide)
- Count (Human Myelin PLP [7]): 44
- Count (Human Myelin PLP [8]): 44

Molecule: SMWSQFR (R3 Myelin PLP-binding peptide)
- Count (Human Myelin PLP [7]): 34
- Count (Human Myelin PLP [8]): 34

Molecule: HSRLPTP (peptide)
- Count (Human Nidogen-2 (human) [1]): 13

Molecule: ALPLSAS (peptide)
- Count (Human MPZ (human) [3]): 196
- Count (Human MPZ (human) [4]): 197

Molecule: NDTKTPS (peptide)
- Count [5]: 19

Molecule: EKPSWTR (R3 Myelin PLP-binding peptide)
- Count (Human Myelin PLP [7]): 33
- Count (Human Myelin PLP [8]): 33

Molecule: HQGSRTY (R3 Myelin PLP-binding peptide)
- Count (Human Myelin PLP [7]): 53
- Count (Human Myelin PLP [8]): 53

Molecule: SKSDAWR
- Count [9]: 14

Molecule: LPMRILT
- Count [9]: 16
- Count [10]: 16

The next lines start with the values.

- Count (Human Nidogen-2 (human) [2]): 11
Molecule: KAIHPMRG (peptide)

- Count (Human Nidogen-2 (human) [1]): 7
Molecule: ARMAFSL (peptide)

- Count (Human MPZ (human) [3]): 107
- Count (Human MPZ (human) [4]): 108
Molecule: TSPWELR (peptide)

- Count (Human MPZ (human) [3]): 86
- Count (Human MPZ (human) [4]): 87
Molecule: VLKNNPT (peptide)

- Count (Human Nidogen-2 (human) [1]): 8
Molecule: LVHPFHG (peptide)

- Count (Human Nidogen-2 (human) [1]): 7
Molecule: ATYNMSQ (peptide)

- Count (Human Nidogen-2 (human) [1]): 7
Molecule: YNHTMMY (peptide)

- Count (Human Nidogen-2 (human) [1]): 6
Molecule: QMDAKHM (peptide)

- Count (Human MPZ (human) [3]): 56
- Count (Human MPZ (human) [4]): 56
Molecule: LSSPLSL (peptide)

- Count (Human MPZ (human) [3]): 97
Molecule: SHLASRP (peptide)

- Count (Human MPZ (human) [3]): 49
Molecule: RVPHSRT (peptide)

- Count (Human Nidogen-2 (human) [1]): 6
Molecule: LSIRGLT (peptide)

- Count [5]: 12
Molecule: LRPISHE (peptide)

- Count (Human Nidogen-2 (human) [1]): 6
Molecule: TIASLLV (peptide)

- Count [5]: 10
Molecule: AGFPPNT (peptide)

- Count (Human MPZ (human) [3]): 78
- Count (Human MPZ (human) [4]): 82
Molecule: IKPPYTH (peptide)

- Count (Human MPZ (human) [3]): 51
- Count (Human MPZ (human) [4]): 54
Molecule: KMAGHTV (peptide)

- Count (Human MPZ (human) [3]): 50
- Count (Human MPZ (human) [4]): 50
Molecule: DRNSVFW (peptide)

- Count (Human MPZ (human) [3]): 57
- Count (Human MPZ (human) [4]): 58
Molecule: WPSISRP (peptide)

- Count (Human MPZ (human) [3]): 48
Molecule: GLTPKLF (peptide)

- Count [9]: 16
- Count [10]: 17
Molecule: EHGYYKV

- Count [9]: 16
Molecule: SVLRMLN

- Count [9]: 15
Molecule: AITSRNA

- Count [9]: 13
Molecule: ILLPSLN
